Experimental findings from PMC8721586, “Enzymatic Switching Between Archaeal DNA Polymerases Facilitates Abasic Site Bypass” (Frontiers in Microbiology, 2021) are described below.

Usually Km stands for the concentration of substrate that gives half-maximal velocity. What is called kcat is the number of substrate molecules converted per active site and unit of time at saturation.

Substrate in the series: Nc1nc2c(ncn2[C@H]2C[C@H](O)[C@@H](COP(=O)(O)OP(=O)(O)OP(=O)(O)O)O2)c(=O)[nH]1
Nature of the series: steady-state single-nucleotide incorporation, FAM-primer gel assay, Michaelis-Menten fit. The class given is biochemical, Saccharolobus islandicus. As to conditions: pH 8.0 Tris-HCl, 40 mM KCl, 10 mM MgCl2, 11 nM enzyme, 100 nM primer-template (undamaged S0; also AP-site substrates D1-D8, L1-L8), apparent Km.

B1: Dpo2 (SisDpo2) (Saccharolobus islandicus REY15A) (protein)
chain: MREMEEYVLDAYPVKGGVKLFLSNFKEKSIRTTFPVYAITDNPDVVLQHPEVKYYEEEKWKTLNGKEAKVYRFEVESFDAYYYMRKRLNVVNETPTVLSQTLYRLGIKPFRRLNSSDDEFPKVTIAKVVPLDWYGESLKGKVFEVKINNEVRRFYEKPEVEADITECLGEACNYVKSNVKIRIEKKRSPVSAKGLIEWSLISLTPLHEIAYATIGKVLTTNEAWVAFKRRIIIPKIVPRVEKLRRLENIMMADKGGLILFPQPGCYDNVYQVDFSSMYPSLIVKYNISAETVDACDDIKTELHSICLREKGIIPEALEWLIKRKSELKRIDKERAEAIKWILVASFGYLGYRNSLFGKIEAYEMVTYLARKTLRRTMEIAEEMGLKVLHSIIDSLVVKGDNIDKFIERVEKETGLRLDHKRYNWIIFTTTRNDTPYPTRYIANMNGEIIAKGLIRENMPNIVKSFLKDVLRGLSLTRTCSDVKKVRIRDLYEKYRKRTINGEPIDYVIWIKGVPYVRGIKGFYDARLGYMGRDVNYYINYLRRVYDNVEEVISRC
notes: recombinant, expressed in native host S. islandicus E233S; purified as in Feng et al. 2021
As to B1, the Michaelis-Menten constant (Km) came to 118 ± 22.7 µM and the kcat worked out at 0.525 ± 0.125 s⁻¹.
